The nature of this data set: soluble fraction after stress (log2 fold change); higher = more stays soluble; pooled small domains, quantitative proteomics. To be noted: stress: pH 4. The procedure, abridged: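 Following acid stress at pH 4, the amount of each small protein domain still soluble was measured in pooled custom libraries by high-throughput quantitative proteomics. Its fold change, on a log2 scale, is higher when more of the domain stayed soluble. This fold change is taken as a measure of aggregation propensity.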
Turning to “HMSSKAVLEKFEALFIDQMLQSMRKATVRSELFDSEGIKLYESLFDKEISEELAKSGGLGLTKDLEQQL”, the “soluble fraction (log2)” value was -1.35.

With “HMSSKFKIVGEILSIKKSDILYIIEILSNNEVVKATAVEDEIKDLKIGDKILLSSKAFNPIVNK”, the “soluble fraction (log2)” value was -1.09.

Consider “HMSSLTDNFVKALSYYLALSGKSKKEVADGIGIPPTTFSSWSNGKHLPDMDRLQNLATYLGAPVSEFFDFT”, for which the “soluble fraction (log2)” value came out at 0.051.

As to “HMSSPVGIAQATTYVYVRAGHSMQAAKVGVLSPGEKVGVTGRSAQGFSEVVYNGVHRWVGSRYLSPT”, the “soluble fraction (log2)” value is no less than 0.43.

On to “HMSSQWWYSAGGERKGPVDFATLRGLYVQGAIDGRTLAWREDMQGWEAVNDIPDLEPLRRAVPPEL”, for which the “soluble fraction (log2)” value worked out at 0.11.

Regarding “HMSSRSLSYSDFIERVDAGQVSKVVMDGERLVVVGQDGTSYVTIKPPGDQVTENLSRELISKGVEVEAEPQ”, the “soluble fraction (log2)” value was no less than 0.43.

With “HMSSRSLTYSDFIERVDAGQVDAVTLDGERIVIRAKDGNTYVAIKPQGEDVTGSLTRDLIAKGVDVEAEPQ”, the “soluble fraction (log2)” value was determined as 0.0187.

Take “HMSSSDYDVYNKAINLMLNLLKEPKSIEEVTASLNITKSQAITWINRALNEGKIIKTNRPVRYVVNN”: the “soluble fraction (log2)” value was 0.0142.

As for “HMSSSYMVRITTSVLNVRKGPGTNYGITTKVKKGEVYTIVAEEKNGNTTWGKLKSGTGYISLGYTER”, the “soluble fraction (log2)” value is -0.145.

On to “HMSSSYVYGGNGEIVILSDVSKHLNVYNLNGQKVTDVNLTAGELQRISIATGIYVVGGKKIVV”, for which the “soluble fraction (log2)” value is -0.121.

Regarding “HMSSVGELEVGNIFEGTVNSVRGGKVLLALGNGQMVLAQMDGRVNITPGSSMFFQVKSNDGETVAIRPYTG”, the “soluble fraction (log2)” value was 0.156.

As to “HMSSWAEGLTERERHTLMWITKGLSNKLIARELGISDSTVKVYVKNLLRKLNVNSRLELAAWVHTHPL”, the “soluble fraction (log2)” value was -0.246.

Regarding “HMSSYTQEDVRSGILYMAQLKPRNIEEFVSTLAFSKDDIMDNLSFLVDEGFLKFDADTDTYFNPVPL”, the “soluble fraction (log2)” value was -0.604.

In the case of “HMSTADGGYPSIVINDGRVIDTNLQKLGLDRSWLSAELKRQGKGSEKDIFLMTVNQRREVYISVKEA”, the “soluble fraction (log2)” value was -0.589.

As for “HMSTEAFLGTEGEVVLPLLPDGLGKIRLHVADQDVELPARTGGEPIQIRERVVVVRFRDGIAEVEPAP”, the “soluble fraction (log2)” value was -0.525.

For the sequence “HMSTEDYLKTIYILESQQGVHGSDVARMLKVTRPTVSIALKALEQEGYVWMDESRLVHLTDSGLQIAKDT”, the “soluble fraction (log2)” value stood at 0.149.

Consider “HMSTESAHLGERMLNQALRAMHIEPDQITEAHWQKLIRDYGLKKKSEILTDIGLGKRQNVMVAHQLLAMG”, for which the “soluble fraction (log2)” value is -0.143.

In the case of “HMSTFKSYRGKITASSGVNIRTGAGTNYNKNGALTYNSVVTIVDEKKVSGTTWGKLADGRGWISLDYLKK”, the “soluble fraction (log2)” value came out at 0.105.

With “HMSTGGDLTQRERELLGLMARGLSNQEISKRLTIAMPTVKFHVTNILAKLHADNRTEAVLVALKNKLVAL”, the “soluble fraction (log2)” value was -0.175.

For the sequence “HMSTINGIEKYLSSGLIPYIGPKTAKRIVEKFGLDTLEIIQYNPERLKEIEGIGDKKLKKIVEAFEEQG”, the “soluble fraction (log2)” value is -0.333.

As for “HMSTISPNAFNFLQQNLNKFSDDAEGKMIKDILSKTTYDEYVKNEKSKTDFNSLLRRQTTTGDDNLNRYIN”, the “soluble fraction (log2)” value is 0.072.

With “HMSTKEFTIHAGEWSYRVSQKLENLGLVSDAKKFDQYLEDNGYSSKIKIGHYTISKDADFEEIAKEIT”, the “soluble fraction (log2)” value came to 0.0658.

In the case of “HMSTKRGEILEFLKDFSARKGYAPSVREIMQAVGLKSTASVHYHLSELHKAGLITVDGTKNRAISLA”, the “soluble fraction (log2)” value came to 0.0891.

Regarding “HMSTMKSKWFVSSNPIAGVMKYQAQRKKDVNAVDSSENREASGQWYTDKEEAQAIVDKLNAEEQIKEAGK”, the “soluble fraction (log2)” value amounted to 0.0846.

In the case of “HMSTMLPFVMRELVELVMKKKALPLGDALYYIYSSKLYKSLLDKSTKLWYSSTLSLYETLEKEKTEEKRRY”, the “soluble fraction (log2)” value was -0.802.

In the case of “HMSTMTDAQRHLFANKLSQLPEMGKYSHGTESYQQFAVRIAEMLQTPKKFKELYPYLQKVGFKA”, the “soluble fraction (log2)” value was 0.0225.

In the case of “HMSTNYVQVLRAALNGVSGRKLAQQYRVSRDTVAILLRQAKIQGWQRAEDLENITEEDLVALLSG”, the “soluble fraction (log2)” value is -0.987.

As for “HMSTPLPTGLPRGTIIEYTVQTDETLAIIAAKFNSTVDDIMTRNKITDPNTIYAGQILKVAINLVTP”, the “soluble fraction (log2)” value is -0.267.

Consider “HMSTPVPIEGQPTENLNLRDQPSTSGKILTTIPKGKTVTILSEKNANGWYKVSYNGKTGYVSGSYFKVTK”, for which the “soluble fraction (log2)” value was -0.14.

With “HMSTSERLKQVMEVKGFNLKTFSEQADIPYRTLQNYILTNREPSAESLAKLHSQLGINLNWLMSGKGEMF”, the “soluble fraction (log2)” value worked out at 0.109.

On to “HMSTSIADNSSITYKVRKGDSLASIAKRHGVNINDVMRWNSVITKASQIQPGDMLTLYVRDS”, for which the “soluble fraction (log2)” value was no less than 0.43.

Take “HMSTTALLEKMVRYIRTLPVISQVVLSLHYYRGMELREIASELDITESRASQLHTTAVLGIRDLLSSY”: the “soluble fraction (log2)” value was -2.02.

With “HMSTTGIVKWFNEEKGFGFITQDQGGADVFVHYRAIASEGFKTLAEGQKVSFEVEQGQKGLQAANVQA”, the “soluble fraction (log2)” value is -0.948.

“HMSTTHLTASVIKDKVNVRSEADSQNGAIIDKARTGERLLVTDYGNKWTGIVLPDGKRGYIMTEYLQF”: the “soluble fraction (log2)” value was 0.22.

“HMSTTSYTQFMEDAKAGKIARVDIKGREITVTPTEGSRYVITSPGDLWMVDDLRKDGVQVYGPP”: the “soluble fraction (log2)” value is 0.137.

As for “HMSTTYLNEGDRITLTDSVNIRTSMSETADRVGLAYQGDVVTVIMSYAEGWTKVSWNGQTGYAKTEYL”, the “soluble fraction (log2)” value was -0.0679.

As to “HMSTVIENVFKNFEVYEIKKGDTFYNIEKRFGVNRQELLVLNPELKEGLKLGMVLKIKEIIP”, the “soluble fraction (log2)” value was 0.192.

Regarding “HMSTYTETETAYLKAYSAAGVDGKISDSERGILNMTAEALGITVERTTELEAMFNLTVEEEA”, the “soluble fraction (log2)” value was -1.39.

Turning to “HMSVDIWTGAQTGNIEAVKQHLADGVDVNSKSDIGRTALDVAIAFKQPLITDLLRKHGGKTRDELKAAE”, the “soluble fraction (log2)” value was -0.397.

“HMSVEVADITRAYYEGVGFEWWIRSVRLDPNELIVDNDDEGKLYRVPFEINGEEVTFGDPVEVKIRYE”: the “soluble fraction (log2)” value was -0.71.

As for “HMSVFGDNVARLRAEHGMSQRALAERLEITNGTVAAWESRDTLPDYDRIRQIAEIFDVPIPQLFAKYIP”, the “soluble fraction (log2)” value is -1.2.

Take “HMSVISVETAKSKALAHAGLTASKVTFIENKLEWDDGRQVYDIEFYTSDYKEYDYTIDAVSGQVLEFDY”: the “soluble fraction (log2)” value is 0.114.

Turning to “HMSVKLMEVKGASTVVSRQVREAVSIVFPTSSMRLDLVALKARIEGVDAVKRADVYLRNGILEIQIDER”, the “soluble fraction (log2)” value was -0.981.

Take “HMSVKLYPNPTRSVTTFATDVDKWYLYDNQGKLVSEGNTKTIDVTAFPVGIYFVKTIKGNNSTFVKLIV”: the “soluble fraction (log2)” value was -0.183.

As to “HMSVLNLQTDIPKKYTDVLGTSVKGRLNTLVHNVIINSVDRPVIQMSEEVHEAMQGLRIFMFENVYRNPV”, the “soluble fraction (log2)” value came out at 0.22.

For the sequence “HMSVLSEQIKEQLMEDIFHKKYKAGDRIVESALARELGVSQASVREALRSLIAMGFLENEPFKGITVR”, the “soluble fraction (log2)” value stood at 0.107.

On to “HMSVNAPMPGKIVNVLVSEGQKVNSGDVLLILEAMKMQNEIAATQAGTVKAINVAAGQSVKVGDALVN”, for which the “soluble fraction (log2)” value is -0.147.

With “HMSVPQENKDLLGRSIEIFYAGKTVEAKVTDTGALAPLGRALDLSPATWRAFGASSISDWGVRGVFYRFVA”, the “soluble fraction (log2)” value is -0.0838.

As to “HMSVSTGTITGSVVNLREEPNTSSKVLDKLPKDTVVYVLSASGEWYNVSYGDKTGWVYGEYLA”, the “soluble fraction (log2)” value was -0.478.

Consider “HMSVTSEIGAKIKYFRKSKHFSLQEMADLLYKSKSTLSKYENGQISIDIETLYAIAKVLGVHVEQLLYSEP”, for which the “soluble fraction (log2)” value is 0.222.

Take “HMSVTSIEGRVVYDENANKIGIAKQVGIDSTQSMVLVLTKNDGTEGSISWNNIKKIGEIILLGN”: the “soluble fraction (log2)” value is -1.34.

“HMSWAGRRSLAALEARYRDETGISNLKIKHNGVLGYHIEVPSKSADKLMAPDSGFTHRQTLAGAVR”: the “soluble fraction (log2)” value is 0.00623.

Regarding “HMSYDAINGYEPSDLRGSLTLEQTASMLNLPLTDVYARLGLPANYPSGATLKDGAADMGMGLSDFKHQLF”, the “soluble fraction (log2)” value stood at 0.0723.

“HMSYLDTLPGRRVAAQGAITGDAGTLAVDGDTWSARVEPGAPDVAPGDEVTVLRIDGATLVVRPLP”: the “soluble fraction (log2)” value is 0.0453.

Take “HMSYPFSEDALKEKIREYLKHNRSINRKVLEAEFHIRKQTALNWLKKLEKSGFLIKEGSRNAPVYFLAE”: the “soluble fraction (log2)” value was 0.0835.

For “HMSYQADEIKEKLIDILQNQKTGLSGLEISERIGINRITMTKYLQVFAAEGFIKQKNIGNVIIWFIEDGTE”, the “soluble fraction (log2)” value is -0.8.

Consider “HMSYTYPVARLNHIKGKWYVLVSVPAHLRHLFPNQRDLRRSTGTDDESLAKRKQHALAQEIYDLFD”, for which the “soluble fraction (log2)” value worked out at 0.00145.

For the sequence “HMTAFEPYLVKVMASVLNIRKGPGTSYAITGQIKDKGTYTIVAESGSWGKLKSGAGWISLSYTSKAGKA”, the “soluble fraction (log2)” value is -0.591.

As for “HMTAFSEQLIKLRKQKGLSQEQLGAAVGVTRQTVSKWELGDTTPELGKLVQLSDYFQLSIDELVGH”, the “soluble fraction (log2)” value is 0.177.

As for “HMTAGTTALNKLQQGMSTQQVQAALGTPSDRTVKESGVELWKYYYPYENMLLYLKFRDGHLVSFGTN”, the “soluble fraction (log2)” value is -0.244.

For the sequence “HMTAKQDLDSIYRHLVATRKSIAENPKMVSSIDDPQALIKMLDYAIQYFYTDKRDEALAVLEKNEEQLNFR”, the “soluble fraction (log2)” value is -0.206.

As to “HMTALTTEDLERRFYAKTYEGESAQKRLARLEISVFGELRQGRPESDRLHDLNNAVLEKERAALNAGAVG”, the “soluble fraction (log2)” value was -0.0471.

Take “HMTAMQYVTIKDIADALGISKSSVSRALAGDVHNVSAQTIERVRAKALEMGYLRNNAAVNLR”: the “soluble fraction (log2)” value came out at 0.22.

On to “HMTANDKRNALYRKIEVGRRQLPAMDEVAFRQLLAAEFGVESRKDMSVGQLSRLVNILAEKGAVF”, for which the “soluble fraction (log2)” value was found to be 0.0414.

As for “HMTANTLDLTYSQFLENVKNGSVNDVTIRGNNVSGNFSDGRKFKTYAVNDPTLVEKLTKMGVNISAAPL”, the “soluble fraction (log2)” value came out at 0.14.

In the case of “HMTAPELSVGDYLEYRGKEYKVESLDMDGFITLTDTALEDAPRLISRVTFLTDEFIRSGEYMVIT”, the “soluble fraction (log2)” value is -1.4.

With “HMTAQGDSSDAVQRAITEILRHEDPSHPFSDQQLVIKLRTMDISVSRRTVTKYRKLLHIPSSTHRK”, the “soluble fraction (log2)” value is 0.0972.

Consider “HMTARYQQVEDYIVRRIQDGSWPPGHRLPSEHELVQQFGMSRMTVNRALRDLMQKGRIVRVAGVGSFVAQD”, for which the “soluble fraction (log2)” value worked out at 0.22.
